From US20090068744A1, “VITREOUS CELL LINE” (SENJU PHARMACEUTICAL CO., LTD., priority 2006, published 2009)

B1: IL-1α: cytokine used to stimulate the vitreous cell line (10 ng/ml) (protein, UniProt P01583 113-271, looked up)
Interleukin-1 alpha: SAPFSFLSNVKYNFMRIIKYEFILNDALNQSIIRANDQYLTAAALHNLDEAVKFDMGAYKSSKDDAKITVILRISKTQLYVTAQDEDQPVLLKEMPEIPKTITGSETNLLFFWETHGTKNYFTSVAHPNLFIATKQDYWVCLAGGPPSITDFQILENQA
B2: PDGF-BB: cytokine used to stimulate the vitreous cell line (10 ng/ml) (protein, UniProt P01127 82-190, looked up)
Platelet-derived growth …: SLGSLTIAEPAMIAECKTRTEVFEISRRLIDRTNANFLVWPPCVEVQRCSGCCNNRNVQCRPTQVQLRPVQVRKIEIVRKKPIFKKATVTLEDHLACKCETVAAARPVT

Key:
[1] = test system: VEGF protein expression by a vitreous cell line; test: VEGF protein in culture supernatant by ELISA after cytokine stimulation; format: cell-based, swine; conditions: cytokine 10 ng/ml; ELISA with antibody to human VEGF, relative values; FIG. 8
Description: (§1) Changes of VEGF expression due to cytokine stimulation in the vitreous cell line established in Example 1 were examined. The expression of VEGF at an mRNA level was examined by RT-PCR, and the expression at a protein level was examined by ELISA.
(§2) To be specific, when the vitreous cell line reached 50-60% confluent, the medium for the cells was exchanged with DMEM containing 1% bovine serum. After culturing for 24 hours, the cells were stimulated with cytokine (IL-1α, IL-1β, TNFα, PDGF-AA, PDGF-BB or TGFβ) (10 ng/ml) for 48 hours (FIG. 6). Total RNA was extracted from the stimulated cells, cDNA was synthesized, and PCR was conducted using VEGF primers. The medium of the stimulated cells was used for ELISA. Since an appropriate antibody to swine VEGF is not available, VEGF protein concentration was measured by ELISA using an antibody to human VEGF, and the result was calculated as a reference value led from a human VEGF standard product. PCR was conducted using TOYOBO KOD plus kit and Gene PCR System 9700 (Applied Biosystem). The conditions of PCR were as follows:
(§3) 95° C. 120 seconds; (95° C. 15 seconds, 62° C. 30 seconds, 68° C. 30 seconds)×30 cycles; 68° C. 90 seconds. ELISA was entrusted to Mitsubishi BCL.

[2] = test system: VEGF mRNA expression by a vitreous cell line; test: VEGF mRNA expression by RT-PCR after cytokine stimulation of the vitreous cell line; format: cell-based, swine; conditions: for VEGF mRNA expression level: cytokine 10 ng/ml, up to 48 hours, FIG. 7, FIG. 9; for VEGF mRNA level as compared to the mRNA level of non-stimulation control: RT-PCR
Description: as §1
as §2, with “After culturing for 24 hours, the cells were stimulated with cytokine (IL-1α, IL-1β, TNFα, PDGF-AA, PDGF-BB or TGFβ) (10 ng/ml) for 48 hours (FIG. 6).” left out
as §3

Molecule	concentration of VEGF protein in the culture supernatant [1]	VEGF mRNA expression level [2]	VEGF mRNA level as compared to the mRNA level of non-stimulation control ([2]; in 12 hours) [fold]	VEGF mRNA level as compared to the mRNA level of non-stimulation control ([2]; in 48 hours) [fold]
B1	increased with time	increased with time	≥ 2	≥ 2.5
B2	–	a significant change in the VEGF mRNA expression level was not observed	–	–
